To fix the notation:
B1: BD-515 Fab (Fab, V domains shown)
VH: EVQLVESGGGLVQPGGSLRLSCAASEFIVSRNYMSWVRQAPGKGLEWVSVIYSGGSTFYADSVKGRFTISRDNSKNTLYLQMNSLRAEDTGVYYCARDRGLVSDYWGQGTLVTVSS
VL: DIQMTQSPSSLSASVGDRVTITCQASQDINKYLNWYQQKPGKAPKLLIFDASHLETGVPSRFSASGSGTDFTFTISSLQPEDIATYYCHQYDNLPRTFGQGTRLEIK
B2: BD-508 Fab (Fab, V domains shown)
VH: EVQLVESGGGLVQPGGSLRLSCAASGFIVSSNYMTWVRQAPGKGLEWVSVIYSGGSTFYADSVKGRFTISRHNSKNTLFLQMNSLRAEDTAVYYCARDAQNYGMDVWGQGTTVTVSS
VL: DIQMTQSPSSLSASVGDRVTITCRASQSISSYLNWYQQKPGKAPKLLIFAASSLQTGAPSRFSGSGSGTDFTLTISSLQPEDFATYYCQQSYSTPPYTFGQGTKLEIK
B3: BD-623 Fab (Fab, V domains shown)
VH: EVQLVESGGGLVQPGGSLRLSCAASGVTVSSNYMSWVRQAPGKGLEWVSAVYSGGSTYYADSVKGRFTISRHNSKNTLYLQMKSLRPEDTAIYYCARLINHYYDSSGDGGAFDIWGQGTMVTVSS
VL: LTQPASVSGSPGQSITISCTGTSSDVGSYNLVSWYQQRPGKAPKLILYEVTKRPSGVSNRFSGSKSGNTASLAISGLQAEDEADYYCCSYAGSSTWVFGGGTKLTVL

The source of these data is PMC8138844 (Cell Research, 2021).

In the test the target is SARS-CoV-2 S protein receptor-binding domain (RBD), residues 319–541 (SARS-CoV-2, UniProt P0DTC2). The experiment in a line: crystal structure. To be noted: both partners purified.
For B1, the binding result was “binds”. The entry for B2 is “binds”. Regarding B3, the binding result is listed as “binds”.
